According to patent publication US20100266576A1 (CENTRE NATIONAL DE LA RECHERCHE SCIENT, published 2010):

Tests used:
peptide Aβ 29-40 = molecular target: T1, peptide Aβ 29-40; assay: competition ELISA in solution (Friguet method)
T1 construct: Bought from Bachem; also called Aβ42 fragment 29-40
T1 peptide: GAIIGLMVGGVV
Description: (§1) Binding affinity of VHH antibodies was determined as described in Friguet et al., (1985). Various concentrations of Aβ peptides were incubated in solution overnight at 4° C. with a known quantity of VHH antibody until equilibrium was reached. The VHH antibody concentration used was determined by preliminary ELISA calibrations. Each mixture (100 μl) was transferred to a well of a microtiter plate previously coated with antigen and was incubated for 20 min at 4° C. The plates were washed with buffer A and free VHH antibodies were detected by adding β-galactosidase-conjugated goat anti-rabbit Igs (Biosys, Compiegne, France) and 4-methylumbelliferyl β-D galactoside (Sigma). Fluorescence was read (Fluoroskan, Labsystem, Finland) at 460 nm, after excitation at 355 nm. KD was estimated from the slope of the regression curve obtained by plotting the reciprocal of the fraction of bound antibody versus the reciprocal of the molar concentration of antigen.

peptide Aβ 33-42 = molecular target: T2, peptide Aβ 33-42; assay: competition ELISA in solution (Friguet method)
T2 construct: Bought from Bachem; also called Aβ42 fragment 33-42
T2 peptide: GLMVGGVVIA
Description: as §1

Aβ42 fragment 15-25 = molecular target: T3, Aβ42 fragment 15-25; assay: competition ELISA for KD (Friguet method) with Aβ fragment peptides
T3 construct: Bought from Bachem; also called Aβ 15-25
T3 peptide: QKLVFFAEDVG
Description: as §1

Aβ42 fragment 1-11 = molecular target: T4, Aβ42 fragment 1-11; assay: as above
T4 construct: Bought from Bachem; also called Aβ 1-11; printed as fragment 1-10 in the result sentence
T4 peptide: DAEFRHDSGYE
Description: as §1

Aβ42 fragment 10-20 = molecular target: T5, Aβ42 fragment 10-20; assay: as above
T5 construct: Bought from Bachem; also called Aβ 10-20
T5 peptide: YEVHHQKLVFF
Description: as §1

Aβ42 fragment 22-35 = molecular target: T6, Aβ42 fragment 22-35; assay: as above
T6 construct: Bought from Bachem; also called Aβ 22-35
T6 peptide: EDVGSNKGAIIGLM
Description: as §1

[1] = molecular target: T7, amyloid β peptide 42 (Aβ42); assay: immunohistochemistry on human AD brain sections
T7 construct: Synthetic peptide bought from Bachem, used as monomer/oligomer mixtures after incubation at 37 C; also called Aβ42 monomer; Aβ42 oligomers
T7 sequence (peptide, as listed by the source): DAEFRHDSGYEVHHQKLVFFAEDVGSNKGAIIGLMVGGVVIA
Description: Immunostaining of brain tissue was performed on […] thick paraffin sections. Sections were de-paraffinized in xylene, rehydrated through ethanol
(100%, 96%, and 90%) and finally brought to water. They were incubated in 90% formic acid, washed again in water, quenched for endogenous peroxidase with 3% hydrogen peroxyde and 20% methanol, and finally washed in water. Non-specific binding was blocked by incubating the sections for 10 minutes in 2% bovine serum albumin in TBS+0.5% Tween. Appropriate dilutions of primary antibodies were then applied overnight in a humidified chamber at room temperature (typically 1 μg/ml for VHH, and 1:200 for 6F/3D mAb). Slides were washed with TBS-Tween and incubated with secondary antibodies (rabbit anti-His Tag or biotinylated anti-mouse immunoglobulins) in TBS-Tween at room temperature for 2 hours. Slides were then incubated with either peroxidase goat anti-rabbit immunoglobulins or streptavidine-peroxidase fusions, and developed with diaminobenzidine (DAB) for 2 minutes. After washing with TBS-Tween, slides were counter-stained with hematoxylin and eosin.

B1: VHH V31-1 (VHH)
VHH: EVQLQASGGGSVQPGGSLRLSCAASGFIFGWSTMSWVRQAPGKGLEWVSTISGGGSATTYTDSVKGRFTISRDRAKNTLYLQMNSLKPEDTAIYYCNADVSTGFRYQRKDYWGRGTQVTVS
notes: Camelid VHH subcloned from pHEN1 into pET22, expressed in the E. coli periplasm and purified by Ni-NTA IMAC; It was detected with anti-c-myc or anti-His tag antibodies; also called VHH V31-1 antibody; CNCM I-2936
Kd (peptide Aβ 29-40): 20 nM | Kd (peptide Aβ 33-42): 20 nM | binding result (Aβ42 fragment 15-25): no binding | binding result (Aβ42 fragment 1-11): no binding | binding result (Aβ42 fragment 10-20): no binding | binding result (Aβ42 fragment 22-35): no binding

B2: VHH 61-3 (VHH)
VHH: EVQLQASGGGLVQAGGSLRLSCAASGSTFRINRMGWYRQAPGKQRELVASINSGGSTNYADSVKGRFTISRDNAKGTVNLTMNSLKPEDTAVYYCNRVTPWPYWGQGTQVTVS
notes: Expressed from pET22 and purified by Ni-NTA; also called CNCM I-2933
binding result [1]: binds
